In one assay the target is BCL-XLΔC24 (labelled with the NHS RED NanoTemper labelling kit (MO-L001) for MST). Kind of assay: MST; Monolith NT.115; protein labelled with NHS RED, unlabelled synthetic peptide diluted in phosphate-buffered saline; 30 min incubation; 25 °C; 40% LED and 40% MST power; three independent experiments, single binding model. Conditions: both partners purified.
The target in assay [1] is T1, T. suis A ΔC28 (Trichuris suis BCL-2-like protein A, C-terminal truncation) (Trichuris suis, labelled with the NHS RED NanoTemper labelling kit (MO-L001) for MST).
T1 chain: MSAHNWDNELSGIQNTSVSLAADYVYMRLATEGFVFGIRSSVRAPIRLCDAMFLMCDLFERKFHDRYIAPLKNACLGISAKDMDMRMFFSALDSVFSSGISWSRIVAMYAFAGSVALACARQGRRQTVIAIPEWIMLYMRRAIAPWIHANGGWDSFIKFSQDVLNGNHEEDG
Described as above. Conditions: both partners purified.

Our source for the Kd values is publication PMC7456325, “Diversity in the intrinsic apoptosis pathway of nematodes” (Communications Biology, 2020).

Sequence of BCL-XLΔC24 (labelled with the NHS RED NanoTemper labelling kit (MO-L001) for MST) (chain, as listed by the source mutant): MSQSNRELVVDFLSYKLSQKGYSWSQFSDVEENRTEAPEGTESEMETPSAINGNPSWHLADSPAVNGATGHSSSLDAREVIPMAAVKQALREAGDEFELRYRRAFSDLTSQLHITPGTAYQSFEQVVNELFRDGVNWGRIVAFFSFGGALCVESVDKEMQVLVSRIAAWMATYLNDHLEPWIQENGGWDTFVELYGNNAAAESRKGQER

B1: BAK BH3 peptide (peptide)
peptide: PSSTMGQVGRQLAIIGDDINRRYDSE
notes: BH3 domain of BAK; also called BAK BH3 domain; source: synthetic peptide (Mimotopes, Australia, >90% purity)
A word on the Kd: it is a measure of binding affinity in units of concentration. Consider B1, for which the Kd in the assay with BCL-XLΔC24 is 0.178 ± 0.034 µM.

B2: T. suis protein A BH3 peptide (peptide)
peptide: SVRAPIRLCDAMFLMCDLFERKFHDR
notes: BH3 domain of Trichuris suis BCL-2-like protein A (ID# BCL_199); also called T. suis A BH3 domain peptide; source: synthetic peptide (Mimotopes, Australia, >90% purity)
In assay [1], B2 came in with an equilibrium dissociation constant (Kd) of over 50 µM.

B3: T. suis protein B BH3 peptide (peptide)
peptide: PILPEVNKTALCMRAMGEVFEDRYKT
notes: BH3 domain of Trichuris suis BCL-2-like protein B (ID# BCL_257); also called T. suis B BH3 domain peptide; source: synthetic peptide (Mimotopes, Australia, >90% purity)
In assay [1], B3 showed a Kd of over 50 µM.
